Source: publication PMC9583845, “Characterization of the chicken melanocortin 5 receptor and its potential role in regulating hepatic glucolipid metabolism” (Frontiers in Physiology, 2022)
Entries after “also recorded” stand apart in the source; their conditions may differ. Like-named read-outs stand apart in the source and are kept apart here.

Columns and labels:
[1] = system: MC5R mRNA, primary chicken hepatocytes; assay: MC5R mRNA in primary chicken hepatocytes, RT-qPCR; format: cell-based; conditions: 6 h
Experimental: To evaluate the effect of ACTH1-39 on chicken liver, the chicken hepatocytes were prepared and maintained as a monolayer culture. Briefly, one-month-old male chicken hepatocytes were isolated by perfusion of a liver with Ca^2+-free KRB buffer to remove blood cells, and being digested with 0.25% collagenase-I for 10 min. Hepatocytes were obtained following filtering and washing using M199 medium. Then the hepatocytes were plated in a Corning CellBIND 48-well microplate (Corning, NY, cat. no.3338) with M199 medium containing 100 U/ml penicillin and […] streptomycin (Gibco), 5 μg/ml bovine insulin (Sigma), and 5% FBS at 37°C in a 5% CO2 atmosphere. To adhere to the wall, the cells were incubated on the 48-well plate for 4 h. For quantitative real-time PCR, primary cultured chicken hepatocytes were treated with various concentrations of ACTH1-39 (or other composition) at 37°C for 6 h. The relative amount of mRNA was calculated using the comparative Ct method. Chicken β-actin gene was used as the reference gene. Amplification of specific transcripts was confirmed by analyzing the melting curve profile performed at the end of each run and by determining the size of the PCR products using agarose electrophoresis and ethidium bromide staining.

[2] = system: primary chicken hepatocytes; assay: Glucose production from primary cultured chicken hepatocytes; format: cell-based; conditions: primary chicken hepatocytes; 100 nM for 30 or 60 min, or 0.1–100 nM for 60 min; gluconeogenic substrates 20 mM lactate, 2 mM pyruvate; four independent experiments; Figures 7A,B
Experimental: To evaluate the effect of ACTH1-39 on chicken liver, the chicken hepatocytes were prepared and maintained as a monolayer culture. Briefly, one-month-old male chicken hepatocytes were isolated by perfusion of a liver with Ca^2+-free KRB buffer to remove blood cells, and being digested with 0.25% collagenase-I for 10 min. Hepatocytes were obtained following filtering and washing using M199 medium. Then the hepatocytes were plated in a Corning CellBIND 48-well microplate (Corning, NY, cat. no.3338) with M199 medium containing 100 U/ml penicillin and […] streptomycin (Gibco), 5 μg/ml bovine insulin (Sigma), and 5% FBS at 37°C in a 5% CO2 atmosphere. To adhere to the wall, the cells were incubated on the 48-well plate for 4 h.
Glucose production from primary cultured chicken hepatocytes was measured as previously described ([Collins et al., 2006]). Briefly, cells were washed three times with warm phosphate-buffered saline (PBS) to remove glucose, followed by treatment with 100 nM (or different concentration gradients) chicken ATCH1-39 for 30 min or 60 min in glucose-free medium containing gluconeogenic substrates (20 mM sodium lactate and 2 mM sodium pyruvate). Glucose concentration was determined with a glucose assay kit (Applygen, Beijing, China, catalog no. E1011). Briefly, the 5 µl medium was added into 195 µl reagent and incubated for 20 min at 37°C. Absorbance in 550 nm was measured in a standard glucose solution.

[3] = system: intracellular cAMP / CREB; conditions: ref Herzig et al., 2001; Noriega et al., 2011; cited from earlier work
Source text: Like its mammalian counterparts, numerous putative transcription factor binding sites were found in the upstream of the MC5R transcription start site. According to reports, Foxo4 may bind to the ...

[4] = target: chicken MC5R (Gallus gallus, UniProt O73671); set-up: method as in 3 sources, ref Ling et al., 2004 ||| ref Dores et al., 2020 ||| ref Schioth et al., 1997; Ling et al., 2004; conditions: cited from earlier work; for EC50 values / potency at chicken MC5R compared (in words): human α-MSH vs ACTH1-24, ref Ling et al.
[5] = system: MC5R orthologs + MRAP1; conditions: ref Dores et al., 2018, Barney et al., 2019, 2020, Hoglin et al., 2022; cited from earlier work
Source text: (§1) Since the R15K and I20 V substitutions in chicken and human ACTH occur in/near the KKRRP motif (Figure 2A), it might lead to different regulatory effects o ...

[6] = target: chicken MC5R + MRAP1 (Gallus gallus, UniProt O73671); conditions: 2020, cited from earlier work; for effect of MRAP1 on cMC5R sensitivity: CHO cells, ref Thomas et al., 2018, Dores et al.
Source text: as §1

[7] = target: chicken MC5R + MRAP2 (Gallus gallus, UniProt O73671); set-up: method as in Thomas et al., 2018; conditions: ref Thomas et al., 2018; cited from earlier work
[8] = system: chicken MC2R + MRAP1; conditions: co-expressed with MRAP1 in CHO cells; ref Barlock et al., 2014; cited from earlier work
Source text: In the chicken genome, there are five paralogous MCRs and two MRAPs ([Ling et al., 2004]; [Barlock et al., 2014]; [Zhang et al., 2017]; [Thomas et al., 2018]). In recent years, the pharmacological characterization and physiological activity of chicken MCRs (cMCRs) have been widely explored ([Scanes and Pierzchala-Koziec, 2021]). […] MC1R of dark-feathered chickens with a Glu to Lys mutation at position 92 show ...

[9] = system: human MC5R; conditions: ref Schioth et al., 1997; Ling et al., 2004; cited from earlier work
Source text: The luciferase reporter system was then employed to investigate the signal pathway of MC5R coupling. […] Human peptides have previously been ...

Chain of chicken MC5R + MRAP1 (O73671 1-325): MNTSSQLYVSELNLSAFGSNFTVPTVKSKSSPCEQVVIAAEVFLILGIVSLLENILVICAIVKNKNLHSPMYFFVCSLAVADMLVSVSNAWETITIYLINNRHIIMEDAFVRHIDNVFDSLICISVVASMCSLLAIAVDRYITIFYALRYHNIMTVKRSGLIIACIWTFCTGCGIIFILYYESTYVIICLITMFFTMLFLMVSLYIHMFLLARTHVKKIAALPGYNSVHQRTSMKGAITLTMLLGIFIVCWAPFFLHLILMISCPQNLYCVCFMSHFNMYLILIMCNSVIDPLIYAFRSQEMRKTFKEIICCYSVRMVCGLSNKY
Chain of chicken MC5R (O73671 1-325): as above
Chain of chicken MC5R + MRAP2 (O73671 1-325): as above
Chain of chicken MC5R + MRAP2 (A0A140B2F4 1-206 partner): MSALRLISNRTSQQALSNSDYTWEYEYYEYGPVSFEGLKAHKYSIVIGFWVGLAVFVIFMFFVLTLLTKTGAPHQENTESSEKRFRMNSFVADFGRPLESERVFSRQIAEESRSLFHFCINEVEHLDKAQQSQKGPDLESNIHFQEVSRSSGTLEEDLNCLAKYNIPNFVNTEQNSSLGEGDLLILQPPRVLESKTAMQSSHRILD

| Substance | increase in MC5R mRNA abundance ([1]; glucagon 10–100 nM, N = 4, Figure 6E) [fold] | MC5R mRNA abundance (in words) ([1]; primary chicken hepatocytes, N = 4, vs β-actin, Figures 6C-E) | glucose production (in words) [2] | intracellular cAMP accumulation and CREB activation [3] | EC50 values / potency at chicken MC5R compared (in words) [4]; 2004 | EC50 values / potency at chicken MC5R compared (in words) ([4]; 2004, listed as ACTH1-24) | ability of hACTH1-39 vs hACTH1-24 to activate chicken MC5R ([4]; ref Schioth et al., 1997, Ling et al., 2004) | EC50 compared, hACTH1-24 vs srACTH1–24 ([4]; srACTH1–24 has R15 and I20, ref Dores et al., 2020) | effect of MRAP1 co-expression on sensitivity of MC5R orthologs [5] | effect of MRAP1 on cMC5R sensitivity [6] | effect of MRAP1 on cMC5R sensitivity ([6]; listed as hACTH1–24) | increase of MC5R sensitivity to hACTH1–24 with cMRAP1 ([6]; KKRRP motif of hACTH1–24 necessary, ref Dores et al.) | effect of MRAP2 on cMC5R sensitivity [7] | activation of cMC2R [8] | ability of hACTH1-39 vs hACTH1-24 to activate human MC5R [9] |
| --- | --- | --- | --- | --- | --- | --- | --- | --- | --- | --- | --- | --- | --- | --- | --- |
| glucagon: chicken glucagon; induce cAMP elevation in a dose-dependent way | 3.5 | increased hepatic MC5R mRNA abundance; also recorded: enhance the expression of MC5R in cultured hepatocytes in a dose-dependent manner | induction of gluconeogenesis | enhance the intracellular cAMP accumulation and activate CREB | – | – | – | – | – | – | – | – | – | – | – |
| human ACTH1-24: shortened form of hACTH1-39 used in cited studies | – | – | – | – | equal potency for chicken MC5R | equivalent | no different | no statistical differences in the EC50 values | increase sensitivity to ACTH1-24 | improved chicken MC5R sensitivity to human ACTH1-24 | significantly increased the sensitivity of cMC5R to hACTH1–24 | ~1,000 fold | no influence on cMC5R sensitivity to human ACTH1–24 | can be activated by ACTH1-24 | no different |
